Here are results for 1 substance from patent US20250382354A1.

Experiment [1] deals with CRCoV-240/05 HR2 peptide (CRCoV-240/05). The experiment is described as follows: peptide ELISA.
Experiment [2] concerns the target HKU24 HR2 peptide (HKU24). As to the kind of experiment: peptide ELISA. For orientation: An ELISA detects its analyte on a solid surface through an enzyme-linked reagent.
The next experiment deals with HKU4 HR2 peptide (HKU4) (UniProt A3EX94). The experiment is described as follows: peptide ELISA.
In the next experiment the target is HKU5 HR2 peptide (HKU5) (UniProt A3EXD0). As to the kind of experiment: peptide ELISA.
Another experiment concerns the target MHV HR2 peptide (MHV). The experiment is described as follows: peptide ELISA.
Experiment [3] concerns the target SARS-CoV-2 HR2 peptide (SARS-CoV-2) (UniProt P0DTC2). As to the kind of experiment: peptide ELISA.
For a further experiment, the target named is MERS S ectodomain (MERS). As to the kind of experiment: ELISA on coated S.
Experiment [4] addresses C-terminally truncated SARS-CoV-2 S protein (pSARS-CoV2-Strunc), ancestral (SARS-CoV-2) (UniProt P0DTC2). The experiment is described as follows: cell-based or functional assay.

As to S2P6 (antibody), the EC50 in experiment [1] amounted to 0.0189 µg/mL; in experiment [2], 0.0101 µg/mL; in the experiment with HKU4 HR2 peptide (HKU4), 0.00975 µg/mL; with HKU5 HR2 peptide (HKU5) it was 0.0345 µg/mL; with MHV HR2 peptide (MHV), 0.0215 µg/mL; in experiment [3], 0.0166 µg/mL. Also, in the experiment with MERS S ectodomain (MERS), the EC50 came out at 0.066 µg/mL. In experiment [4], this substance had an Ancestral Pseudovirus IC50 (on cells with [not given]) of 23.2 µg/mL.

One may read the EC50 as the concentration giving half of the maximal effect. A low value points to greater potency.
